We go through one molecule from article PMC5238629, “Streptavidin-coated gold nanoparticles: critical role of oligonucleotides on stability and fractal aggregation”.

This series concerns the target streptavidin (Streptomyces avidinii, UniProt P22629 25-183). As to the kind of experiment: SPR; binding through the 3'-biotin, not the DNA sequence; 10 uM BiotinDNA in water gave about 90 RU; about 70 RU lost on displacement by free biotin (0.01-10.24 mM); SPR: 10 uM BiotinDNA in water, 10 uL/min, immobilized streptavidin; displacement by free biotin in water; temperature and pH not given. Particulars: protein: commercial; chain copies: 4; single strand.

Sequence of streptavidin (P22629 25-183): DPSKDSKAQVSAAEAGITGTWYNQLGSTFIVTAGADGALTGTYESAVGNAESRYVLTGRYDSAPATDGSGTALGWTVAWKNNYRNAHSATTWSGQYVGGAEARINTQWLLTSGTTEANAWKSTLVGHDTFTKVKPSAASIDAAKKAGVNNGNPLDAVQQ

Consider AGCAGCCTAAG (ssDNA, 3'-biotin) [BiotinDNA], for which the binding result is reported as “binds”.
